Data from publication PMC5493754, “Myosin 7 and its adaptors link cadherins to actin” (Nature Communications, 2017).

T1: SANS_(CEN-PBM) with YFP-FL-harmonin-ΔCter ( | human, UniProt Q495M9 300-461; Q9Y6N9-1 1-542)
T1 construct: SANS (USH1G), residues 300-461 of UniProt Q495M9; as m41; Harmonin-a1 (USH1C), human, residues 1-542 of UniProt Q9Y6N9-1; as m28; also called SANS_(CEN-PBM)+^YFPFL ΔCter; source: purified E. coli proteins mixed
T1 sequence (looked up) 1: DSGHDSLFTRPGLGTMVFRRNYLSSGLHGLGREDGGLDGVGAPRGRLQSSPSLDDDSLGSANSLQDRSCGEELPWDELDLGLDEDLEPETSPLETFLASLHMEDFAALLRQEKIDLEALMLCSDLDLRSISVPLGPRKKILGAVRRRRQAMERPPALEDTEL
T1 sequence (looked up) 2: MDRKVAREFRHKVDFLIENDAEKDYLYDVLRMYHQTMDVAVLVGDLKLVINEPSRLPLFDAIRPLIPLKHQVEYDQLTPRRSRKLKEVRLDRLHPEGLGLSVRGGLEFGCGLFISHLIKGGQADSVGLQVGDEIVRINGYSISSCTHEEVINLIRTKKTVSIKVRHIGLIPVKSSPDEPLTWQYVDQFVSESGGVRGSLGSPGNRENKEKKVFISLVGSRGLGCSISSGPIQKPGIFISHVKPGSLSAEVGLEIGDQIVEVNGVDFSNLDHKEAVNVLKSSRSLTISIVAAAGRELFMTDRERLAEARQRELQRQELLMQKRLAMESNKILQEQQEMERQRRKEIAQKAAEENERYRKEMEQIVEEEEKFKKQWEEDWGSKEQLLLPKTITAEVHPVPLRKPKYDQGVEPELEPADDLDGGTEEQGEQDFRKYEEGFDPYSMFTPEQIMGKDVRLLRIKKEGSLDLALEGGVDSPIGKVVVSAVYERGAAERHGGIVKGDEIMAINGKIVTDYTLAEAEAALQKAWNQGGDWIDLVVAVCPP

T2: ANKS4B_(CEN-PBM) with YFP-harmonin NPDZ1.PDZ2 (human, UniProt Q8N8V4 259-417; Q9Y6N9-1 1-301)
T2 construct: ANKS4B, human, residues 259-417 of UniProt Q8N8V4; as m43; Harmonin-a1 (USH1C), human, residues 1-301 of UniProt Q9Y6N9-1; as m31; also called ANKS4b+^YFPNPDZ1.PDZ2; ^YFPNPDZ1.PDZ2+ANKS4B_(CEN-PBM); source: purified E. coli proteins mixed
T2 sequence (looked up) 1: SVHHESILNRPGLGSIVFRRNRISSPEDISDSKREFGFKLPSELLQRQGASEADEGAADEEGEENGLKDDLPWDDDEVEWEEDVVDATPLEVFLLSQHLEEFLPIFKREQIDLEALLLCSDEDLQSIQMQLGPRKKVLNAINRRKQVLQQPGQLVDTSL
T2 sequence (looked up) 2: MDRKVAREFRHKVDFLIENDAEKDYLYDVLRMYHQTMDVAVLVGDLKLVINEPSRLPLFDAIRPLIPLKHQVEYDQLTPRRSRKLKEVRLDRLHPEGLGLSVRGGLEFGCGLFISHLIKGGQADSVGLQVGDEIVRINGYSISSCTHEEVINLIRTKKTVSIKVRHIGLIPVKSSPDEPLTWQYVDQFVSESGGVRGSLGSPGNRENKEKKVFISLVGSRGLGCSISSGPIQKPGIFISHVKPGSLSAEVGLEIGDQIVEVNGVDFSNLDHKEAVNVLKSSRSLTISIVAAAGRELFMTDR

T3: YFP-SANS_(CEN-PBM) saturated with harmonin NPDZ1.PDZ2 ( | human, UniProt Q495M9 300-461; Q9Y6N9-1 1-301)
T3 construct: SANS (USH1G), residues 300-461 of UniProt Q495M9; as m40; Harmonin-a1 (USH1C), human, residues 1-301 of UniProt Q9Y6N9-1; as m30; also called ^YFPSANS_(CEN-PBM)+NPDZ1.PDZ2; source: purified E. coli proteins mixed (saturating NPDZ1.PDZ2); not shown: YFP, N-terminal, kept
T3 sequence (looked up) 1: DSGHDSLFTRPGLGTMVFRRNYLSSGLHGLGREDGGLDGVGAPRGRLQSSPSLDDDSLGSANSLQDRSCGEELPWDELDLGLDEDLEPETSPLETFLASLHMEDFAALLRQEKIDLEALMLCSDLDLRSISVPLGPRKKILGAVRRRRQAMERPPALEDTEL
T3 sequence (looked up) 2: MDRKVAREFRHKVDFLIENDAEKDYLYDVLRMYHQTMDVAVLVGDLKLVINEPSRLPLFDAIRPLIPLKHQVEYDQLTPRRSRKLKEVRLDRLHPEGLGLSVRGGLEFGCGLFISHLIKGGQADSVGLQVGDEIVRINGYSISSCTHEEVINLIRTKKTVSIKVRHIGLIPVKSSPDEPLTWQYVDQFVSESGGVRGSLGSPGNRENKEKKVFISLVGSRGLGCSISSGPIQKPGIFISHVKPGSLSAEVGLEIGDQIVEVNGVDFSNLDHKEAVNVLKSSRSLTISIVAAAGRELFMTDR

T4: SANS_(CEN-PBM) with YFP-harmonin NPDZ1.PDZ2 ( | human, UniProt Q495M9 300-461; Q9Y6N9-1 1-301)
T4 construct: SANS (USH1G), residues 300-461 of UniProt Q495M9; as m41; Harmonin-a1 (USH1C), human, residues 1-301 of UniProt Q9Y6N9-1; as m31; also called SANS_(CEN-PBM)+^YFPNPDZ1.PDZ2; source: purified E. coli proteins mixed
T4 sequence (looked up) 1: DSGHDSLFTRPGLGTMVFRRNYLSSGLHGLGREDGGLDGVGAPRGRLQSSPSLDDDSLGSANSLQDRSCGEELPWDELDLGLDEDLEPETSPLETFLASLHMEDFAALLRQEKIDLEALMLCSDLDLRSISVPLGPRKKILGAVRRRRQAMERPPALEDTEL
T4 sequence (looked up) 2: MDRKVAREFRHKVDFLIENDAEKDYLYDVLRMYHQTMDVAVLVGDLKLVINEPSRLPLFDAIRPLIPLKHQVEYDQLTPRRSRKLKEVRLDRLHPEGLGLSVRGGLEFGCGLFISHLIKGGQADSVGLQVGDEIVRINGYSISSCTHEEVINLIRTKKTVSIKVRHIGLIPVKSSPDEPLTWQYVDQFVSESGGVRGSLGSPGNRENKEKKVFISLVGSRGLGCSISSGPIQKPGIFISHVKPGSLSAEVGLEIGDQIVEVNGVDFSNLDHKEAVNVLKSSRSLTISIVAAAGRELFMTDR

T5: YFP-ANKS4B_(CEN-PBM) with harmonin NPDZ1.PDZ2 (human, UniProt Q8N8V4 259-417; Q9Y6N9-1 1-301)
T5 construct: ANKS4B, human, residues 259-417 of UniProt Q8N8V4; as m42; Harmonin-a1 (USH1C), human, residues 1-301 of UniProt Q9Y6N9-1; as m30; also called ^YFPANKS4b+NPDZ1.PDZ2; source: purified E. coli proteins mixed; not shown: YFP, N-terminal, kept
T5 sequence (looked up) 1: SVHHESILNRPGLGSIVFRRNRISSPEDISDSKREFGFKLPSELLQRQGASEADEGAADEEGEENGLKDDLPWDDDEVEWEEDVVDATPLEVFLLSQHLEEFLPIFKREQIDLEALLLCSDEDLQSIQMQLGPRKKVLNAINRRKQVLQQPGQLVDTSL
T5 sequence (looked up) 2: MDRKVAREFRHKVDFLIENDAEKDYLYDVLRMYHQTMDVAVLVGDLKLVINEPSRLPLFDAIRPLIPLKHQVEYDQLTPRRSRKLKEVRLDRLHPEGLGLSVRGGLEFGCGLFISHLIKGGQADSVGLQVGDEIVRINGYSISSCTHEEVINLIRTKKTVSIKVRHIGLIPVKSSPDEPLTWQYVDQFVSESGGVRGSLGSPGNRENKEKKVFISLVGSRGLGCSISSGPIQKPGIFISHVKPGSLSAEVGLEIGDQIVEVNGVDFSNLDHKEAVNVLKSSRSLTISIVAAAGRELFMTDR

T6: Harmonin NPDZ1 (non-fluorescent, as used in MST and SEC-MALS) (human, UniProt Q9Y6N9-1 1-197)
T6 construct: Harmonin-a1 (USH1C), human, N-terminal domain and PDZ1, residues 1-197 of UniProt Q9Y6N9-1; source: E. coli BL21 (DE3) Rosetta, purified (Glutathione Sepharose 4B, size-exclusion chromatography)
T6 sequence (looked up): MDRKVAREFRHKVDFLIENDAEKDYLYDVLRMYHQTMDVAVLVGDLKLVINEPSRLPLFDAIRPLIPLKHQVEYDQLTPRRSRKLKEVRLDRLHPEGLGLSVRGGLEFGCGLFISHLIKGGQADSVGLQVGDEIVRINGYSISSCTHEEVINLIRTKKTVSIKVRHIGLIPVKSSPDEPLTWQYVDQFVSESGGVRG


Columns and labels:
Conditions in all cases: both partners purified
[1] = target: T1, SANS_(CEN-PBM) with …; test: MST; YFP-fused partner held together with a third protein (saturating concentrations; competition experiments), non-fluorescent protein titrated
[2] = target: T2, ANKS4B_(CEN-PBM) with YFP-harmonin …; test: as above
[3] = target: T3, YFP-SANS_(CEN-PBM) saturated with …; test: as above
[4] = target: T4, SANS_(CEN-PBM) with YFP-harmonin …; test: as above
[5] = target: T5, YFP-ANKS4B_(CEN-PBM) with harmonin …; test: as above
[6] = target: T6, Harmonin NPDZ1 (non-fluorescent, as …); test: MST; YFP-fused partner constant at 100 nM, non-fluorescent protein titrated (16 two-fold dilutions); 20 mM Hepes pH 7.0, 100 mM NaCl, 1 mM EGTA, 0.5 mM TCEP, 0.05% Tween 20; Monolith NT.115

Row | Kd [1] | Kd [2] | Kd [3] | Kd [4] | Kd [5] | Kd [6] | Binder
1 | > 100 µM | > 100 µM | > 100 µM | > 100 µM | > 100 µM | – | Harmonin-a PDZ3c (non-fluorescent, as used in MST) (domain or fragment, human, UniProt Q9Y6N9-1 428-552, looked up, Harmonin-a1 (USH1C), human, PDZ3 plus C-terminal peptide, residues 428-552 of UniProt Q9Y6N9-1; The methods say only that samples for ITC or crystallisation were digested with TEV protease; also called PDZ3c (isoA); source: E. coli BL21 (DE3) Rosetta, purified (Glutathione Sepharose 4B, size-exclusion chromatography)) QDFRKYEEGFDPYSMFTPEQIMGKDVRLLRIKKEGSLDLALEGGVDSPIGKVVVSAVYERGAAERHGGIVKGDEIMAINGKIVTDYTLAEAEAALQKAWNQGGDWIDLVVAVCPPKEYDDELTFF
2 | – | – | – | – | – | 14.2 µM | YFP-Harmonin-a PDZ3c (domain or fragment, human, UniProt Q9Y6N9-1 428-552, looked up, Harmonin-a1 (USH1C), human, residues 428-552 of UniProt Q9Y6N9-1; also called ^YFPPDZ3c (isoA); source: E. coli BL21 (DE3) Rosetta, purified (Glutathione Sepharose 4B, size-exclusion chromatography)) QDFRKYEEGFDPYSMFTPEQIMGKDVRLLRIKKEGSLDLALEGGVDSPIGKVVVSAVYERGAAERHGGIVKGDEIMAINGKIVTDYTLAEAEAALQKAWNQGGDWIDLVVAVCPPKEYDDELTFF
